# Legend:
# [1] = type: biochemical, M. tuberculosis; conditions: pH 8
Molecule,TG hydrolase activity [1] [nmol/mg/min],Rate of [14C]diolein hydrolysis (20 mM diolein emulsion) [nmol/mg/min],Storage stability (60 days at 4° C. and 4 cycles of freezing at −20° C. followed by thawing),Temperature stability of lipase activity (held at 50° C. or higher for 15 min prior to assay),"Fatty acid release from other substrates (phosphatidylcholine, phosphatidyl ethanolamine or hexadecyl palmitate, data not shown)","Km (read-out: apparent Km, triolein, double-reciprocal plot) [mM]","Vmax (triolein, double-reciprocal plot) [nmol/mg/min]"
"LIPV: M. tuberculosis putative lipase/esterase gene product expressed in E. coli (protein, UniProt L0TC47 1-261, looked up) Lipase LipV: MIIDLHVQRYGPSGPARVLTIHGVTEHGRIWHRLAHHLPEIPIAAPDLLGHGRSPWAAPWTIDANVSALAALLDNQGDGPVVVVGHSFGGAVAMHLAAARPDQVAALVLLDPAVALDGSRVREVVDAMLASPDYLDPAEARAEKATGAWADVDPPVLDAELDEHLVALPNGRYGWRISLPAMVCYWSELARDIVLPPVGTATTLVRAVRASPAYVSDQLLAALDKRLGADFELLDFDCGHMVPQAKPTEVAAVIRSRLGPR",0,–,–,–,–,–,–
"LIPU: M. tuberculosis putative lipase/esterase gene product expressed in E. coli (protein, UniProt O53424 1-297, looked up, expressed in E. coli) Esterase LipU: MAVRPVLAVGSYLPHAPWPWGVIDQAARVLLPASTTVRAAVSLPNASAQLVRASGVLPADGTRRAVLYLHGGAFLTCGANSHGRLVELLSKFADSPVLVVDYRLIPKHSIGMALDDCHDGYRWLRLLGYEPEQIVLAGDSAGGYLALALAQRLQEVGEEPAALVAISPLLQLAKEHKQAHPNIKTDAMFPARAFDALDALVASAAARNQVDGEPEELYEPLEHITPGLPRTLIHVSGSEVLLHDAQLAAAKLAAAGVPAEVRVWPGQVHDFQVAASMLPEAIRSLRQIGEYIREATG",0,–,–,–,–,–,–
"LIPY: M. tuberculosis long-chain TG hydrolase, HSL family lipase, expressed His-tagged in E. coli (protein, listed as Mycobacterium tuberculosis, His6 tag, M. tuberculosis long-chain TG hydrolase, HSL family lipase, expressed His-tagged in E. coli) EYVVAIHGGAFILPPSIFHWLNYSVTAYQTGATVQVPIYPLVQEGGTAGTVVPAMAGLSNVSVVGDSAGGNLALAAAQYMVSQGNPVPSSMVLLSPWLDVGTWQISQAWAGNLAVNLPPTYVYSGSLDPLAQQAVVLEHTAVVQGAPFSFVLAPWQIHDWILLTPWGLLSWPQINQQL",48.6,316.8 ± 9.0,retained nearly all of its original activity,dropped off sharply,did not show any fatty acid release,7.57,653.3

# Source: patent US7601357B2 (priority 2005, dated 2009)
